Experimental data: patent US20250346904A1, “CCR5 and CD4 siRNA-TARGETED PHOSPHOLIPID NANOSOMES THERAPEUTICS FOR TREATMENT OF HIV-1 AND OTHER DISEASES” (priority 2024, published 2025)

B1: RANTES: CCL5, a CC chemokine with a molecular weight of 7,900, natural ligand of CCR5; unencapsulated in Table 13 (protein, UniProt P13501 24-91, looked up)
C-C motif chemokine 5: SPYSSDTTPCCFAYIARPLPRAHIKEYFYTSGKCSNPAVVFVTRKNRQVCANPEKKWVREYINSLEMS
modifications: ends and bridges not checked

How the values were obtained:
[1] = test system: HIV-1RF virus (NIH ARP Cat #2804, dual-tropic); test: Knockdown by BFU assay on P4/R5 cells, HIV-1RF, log dilutions (RNA-I-47); type: cell-based; details: Human immunodeficiency virus 1, P4/R5, each drug as part of the Raltegravir + Efavirenz cocktail, read-out: Inhibitory Dose 50 (ID50) of the cocktail
Protocol: MAGI P4/R5 cells carry the β-galactosidase gene under control of the HIV LTRs (Long Terminal Repeats). […] Briefly, 96 well plates of MAGI P4/R5 cells were infected with HIV-1 and fixed 2-3 days post infection with a fixative containing 1% formaldehyde and 0.2% glutaraldehyde. Fixed cells were washed with PBS (Phosphate Buffered Saline) and stained for β-galactosidase activity using X-gal at 1 mg/mL in PBS with 5 mM potassium ferricyanide and 5 mM potassium ferrocyanide as per published procedures. The cells were usually stained 3 hours to overnight, the number of blue foci counted under the microscope and reported as Blue Focus-forming Units (BFUs).
In this study (RNA-I-47), 8 siRNA nanosomal formulations and 2 controls were evaluated for HIV-1 inhibition on P4/R5 cells using the BFU assay. The test formulations were the same 3 CD4_siRNAs, 3 CCR5_siRNAs, RANTES protein alone and RANTES protein co-encapsulated with a CCR5_siRNA in phospholipid nanosomes, tested previously in RNA-I-50b and RNA-I-51. The HIV-1 virus used was NIH ARP Cat #2804, a member of a panel HIV-1RF viruses and is dual-tropic with the ability to infect both CCR5 and CXCR4 receptor expressing cells.
This study was similar to the previous studies with a few differences. […]

HIV-1 RF, NIH Cat #2804 = test: Knockdown by BFU assay, HIV-1 RF, with and without lipofectamine (RNA-I-61); type: cell-based; details: Naked (unencapsulated), Presence of Lipofectamine
Protocol: A knockdown study (RNA-I-61) of the 8 nanoencapsulated and the corresponding unencapsulated (naked) siRNA preparations along with two controls described in the previous experiments was performed using freshly reconstituted materials with HIV-1 RF, NIH Cat #2804, diluted to contain ˜100 Blue Focus forming Units (BFUs) per dose of inoculum. […] The objective of this experiment was to test a range of concentrations of the inhibitors to determine the ID50 for each preparation based on the siRNA content. Since the nanosomal materials were freshly reconstituted, they were recharacterized.
The reconstituted samples as well as the naked siRNA preparations were tested for virus infection inhibitory activity. The inhibition of infectivity was measured by counting the number of blue foci due to the induced B-galactosidase activity in the host MAGI P4/R5 cells by the infecting HIV. […] The number of BFUs for each treatment at various dilutions were used to calculate the % inhibition from the corresponding dilution for the Negative_siRNA samples. The inhibitor activity was also quantified by measuring the p24 antigen concentration in each of the wells.
Infectivity Assay by BFUs: The percent inhibitions obtained with various Nanosomal_siRNA formulations versus Negative_siRNA formulations in the presence of lipofectamine are listed in Table 12.
50% Inhibitory Dose (ID50) Values: The data from RNA quantification using gel analysis and the infectivity results were used to plot dose response curves and calculate the ID50 (a.k.a. Inhibitory Concentration that results in 50% inhibition, [IC50]) values.

Molecule	IC50 [1] [pM]	Inhibition of BFUs by Naked_siRNA vs Negative_siRNA (HIV-1 RF, NIH Cat #2804; treatment dilution 1) [%]	Inhibition of BFUs by Naked_siRNA vs Negative_siRNA (HIV-1 RF, NIH Cat #2804; treatment dilution 5) [%]	Inhibition of BFUs by Naked_siRNA vs Negative_siRNA (HIV-1 RF, NIH Cat #2804; treatment dilution 15) [%]	Inhibition of BFUs by Naked_siRNA vs Negative_siRNA (HIV-1 RF, NIH Cat #2804; treatment dilution 45) [%]	Inhibition of BFUs by Naked_siRNA vs Negative_siRNA (HIV-1 RF, NIH Cat #2804; treatment dilution 135) [%]
O=C1Nc2ccc(Cl)cc2[C@@](C#CC2CC2)(C(F)(F)F)O1 [Efavirenz]	160					
B1		0	34	18	0	0
